Kd data for one molecule are collected here from paper PMC11680790 (2024).

The target of assay [1] is T1, NXE’992, chimeric peptide (pyrazole-QRPRL[AIB]S[PipALA]VPFP) (UniProt Q9ULZ1, pyrazole on the N-terminus; AIB at position 6; PipALA at position 8). In words: SPR; pH 7.5. A general note: SPR reads the build-up and loss of mass on a sensor chip optically.
The target of assay [2] is T1, NXE’992, chimeric peptide …. In words: SPR; pH 6.0.

B1: human apelin stabilised receptor (NxStaR) (receptor)
chain: MEEGGDFDNYYGADNQSECEYTDWKSSGALIPAIYMLVFLLGTTGNGLVLWTVFRSSREKRRSADIFIASLAVADLTFVVTLPLWAVYTYRDYDWPFGTFFCKLSSYLIFVAMYASVFCLTGLSFDRYLAIVRPVANARLRLRVSGAVATAVLWVLAALLAMPVMVLRTTGDLENTTKVQCYMDYSMVATVSSEWAWEVGLGVSSTMVGFVVPLTIMLTCYFFAAQTIAGHFRKERIEGLRKRRRLLSIIVVLVVTFALCWMPYHLVKTLYMLGSLLHWPCDFDLFLMNIFPYCTCIAYVNSCLNPFLYAFFDPRFRQACTSMLCCGQSRCAGTSHSSSGEKSASYSSGHSQGPGPNMGKGGEQMHEKSIPYSQETLVVD
A word on the Kd: it is the constant that tells how readily two partners part at equilibrium. A lower Kd goes with a tighter complex. For B1, the Kd in assay [1] amounted to 3.3 nM; in assay [2], 21 nM.
